Patent US11278600B2, “Human alpha-galactosidase variants” (Codexis, Inc., priority 2014, dated 2022)
Numbering of substitutions follows the chain as printed.

B1: 142 (protein)
chain: LDNGLARTPTMGWLHWERFMCNLDCQEEPDSCISEKLFMEMAELMVSEGWKDAGYEYLCIDDCWMAPQRDSEGRLQADPARFPHGIRQLANYVHSKGLKLGIYADVGNKTCAGFPGSFGYYDIDAQTFADWGVDLLKFDGCYCDSLENLADGYKHMSLALNRTGRSIVYSCEWPLYMWPFQKPNYTEIRQYCNHWRNFADIDDSWKSIKSILDWTSFNQERIVDVAGPGGWNDPDMLVIGNFGLSWNQQVTQMALWAIMAAPLFMSNDLRHISPQAKALLQDKDVIAINQDPLGKQGYQLRQGDNFEVWERPLSGLAWAVAMINRQEIGGPRSYTIAVASLGKGVACNPACFITQLLPVKRKLGFYEWTSRLRSHINPTGTVLLQLENTMQMSKDLLL
modifications: Synthetic Polypeptide sequence of Variant No. 142 of mature Human GLA
B2: 144 (protein)
chain: B1 chain with A80V
modifications: Synthetic Polypeptide sequence of Variant No. 144 of mature Human GLA
B3: 143 (protein)
chain: B1 chain with A80H
modifications: Synthetic Polypeptide sequence of Variant No. 143 of mature Human GLA
B4: 38 (protein)
chain: B1 chain with A80Q, D105S
modifications: Synthetic Polypeptide sequence of Variant No. 38 of mature Human GLA
B5: 151 (protein)
chain: B1 chain with A80Q, R162S
modifications: Synthetic Polypeptide sequence of Variant No. 151 of mature Human GLA
B6: 147 (protein)
chain: B1 chain with A80Q, Q88H
modifications: Synthetic Polypeptide sequence of Variant No. 147 of mature Human GLA
B7: 145 (protein)
chain: B1 chain with A80Q, Q88A
modifications: Synthetic Polypeptide sequence of Variant No. 145 of mature Human GLA
B8: 150 (protein)
chain: B1 chain with A80Q, R162H
modifications: Synthetic Polypeptide sequence of Variant No. 150 of mature Human GLA
B9: 152 (protein)
chain: B1 chain with A80Q, R221K, A350G
modifications: Synthetic Polypeptide sequence of Variant No. 152 of mature Human GLA
B10: 146 (protein)
chain: B1 chain with A80Q, Q88F
modifications: Synthetic Polypeptide sequence of Variant No. 146 of mature Human GLA
B11: 37 (protein)
chain: B1 chain with A80Q, D105A
modifications: Synthetic Polypeptide sequence of Variant No. 37 of mature Human GLA
B12: 148 (protein)
chain: B1 chain with A80Q, Q88R
modifications: Synthetic Polypeptide sequence of Variant No. 148 of mature Human GLA
B13: 153 (protein)
chain: B1 chain with A80Q, R221T
modifications: Synthetic Polypeptide sequence of Variant No. 153 of mature Human GLA
B14: 149 (protein)
chain: B1 chain with A80Q, Q88S
modifications: Synthetic Polypeptide sequence of Variant No. 149 of mature Human GLA

Assays:
Format in all cases: biochemical
[1] = HTP-analysis of yeast culture supernatants, no challenge (MUGal hydrolysis); conditions: activity of the variant/activity of WT GLA (SEQ ID NO: 5), yeast supernatant
How it was run: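 Activity read as 4-methylumbelliferyl α-D-galactopyranoside hydrolysis: fluorescence (355/448 nm) after sodium carbonate stop, following 30-180 min at 37° C with 2 mM MUGal stock at pH 4.6–4.8. Enzyme source is unchallenged culture supernatant of INVSc1 yeast expressing GLA variants, grown 66-84 h at 30° C.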

[2] = HTP-analysis of supernatants pretreated with acid (MUGal hydrolysis); conditions: challenge at pH 4.2; activity of the variant/activity of WT GLA (SEQ ID NO: 5); yeast supernatant
How it was run: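 Supernatants from INVSc1 yeast secreting GLA variants were challenged at 37° C. for 1-3 h in McIlvaine buffer at pH 3.3-4.3. Residual activity was then measured on 4 mM MUGal substrate stock at pH 4.8 with citrate buffer pH 4.3, over 30-180 min at 37° C. Reactions were quenched with sodium carbonate and read by fluorescence (Ex 355/Em 448 nm).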

[3] = HTP-analysis of supernatants pretreated with base (MUGal hydrolysis); conditions: challenge at pH 7.1; activity of the variant/activity of WT GLA (SEQ ID NO: 5); yeast supernatant
How it was run: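 Fluorescence of released 4-MU (Ex 355 nm, Em 448 nm) after carbonate quench reports MUGal hydrolysis by GLA variants secreted from INVSc1 yeast. Before the acidic (pH 4.3-4.8) 30-180 min reaction at 37° C, supernatants had been pre-incubated at pH 7.0-9.7 for 1-18 h at 37° C.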

Row | Molecule | Relative Activity of GLA Variants After No Challenge (NC) [1] | Relative Activity of GLA Variants After Challenge at pH 4.2 [2] | Relative Activity of GLA Variants After Challenge at pH 7.1 [3]
1 | B1 | + (+ = 0.5 to 1.5 relative activity over WT GLA (SEQ ID NO: 5)) | + (+ = 0.5 to 1.5 relative activity over WT GLA (SEQ ID NO: 5)) | + (+ = 0.5 to 1.5 relative activity over WT GLA (SEQ ID NO: 5))
2 | B2 | + (+ = 0.5 to 1.5 relative activity over WT GLA (SEQ ID NO: 5)) | ++ (++ = >1.5 to 2.5 relative activity over WT GLA (SEQ ID NO: 5)) | + (+ = 0.5 to 1.5 relative activity over WT GLA (SEQ ID NO: 5))
3 | B3 | + (+ = 0.5 to 1.5 relative activity over WT GLA (SEQ ID NO: 5)) | + (+ = 0.5 to 1.5 relative activity over WT GLA (SEQ ID NO: 5)) | + (+ = 0.5 to 1.5 relative activity over WT GLA (SEQ ID NO: 5))
4 | B4 | − (− = <0.5 relative activity to WT GLA (SEQ ID NO: 5)) | + (+ = 0.5 to 1.5 relative activity over WT GLA (SEQ ID NO: 5)) | − (− = <0.5 relative activity to WT GLA (SEQ ID NO: 5))
5 | B5 | + (+ = 0.5 to 1.5 relative activity over WT GLA (SEQ ID NO: 5)) | + (+ = 0.5 to 1.5 relative activity over WT GLA (SEQ ID NO: 5)) | + (+ = 0.5 to 1.5 relative activity over WT GLA (SEQ ID NO: 5))
6 | B6 | ++ (++ = >1.5 to 2.5 relative activity over WT GLA (SEQ ID NO: 5)) | ++ (++ = >1.5 to 2.5 relative activity over WT GLA (SEQ ID NO: 5)) | ++ (++ = >1.5 to 2.5 relative activity over WT GLA (SEQ ID NO: 5))
7 | B7 | + (+ = 0.5 to 1.5 relative activity over WT GLA (SEQ ID NO: 5)) | + (+ = 0.5 to 1.5 relative activity over WT GLA (SEQ ID NO: 5)) | + (+ = 0.5 to 1.5 relative activity over WT GLA (SEQ ID NO: 5))
8 | B8 | + (+ = 0.5 to 1.5 relative activity over WT GLA (SEQ ID NO: 5)) | + (+ = 0.5 to 1.5 relative activity over WT GLA (SEQ ID NO: 5)) | + (+ = 0.5 to 1.5 relative activity over WT GLA (SEQ ID NO: 5))
9 | B9 | ++ (++ = >1.5 to 2.5 relative activity over WT GLA (SEQ ID NO: 5)) | ++ (++ = >1.5 to 2.5 relative activity over WT GLA (SEQ ID NO: 5)) | ++ (++ = >1.5 to 2.5 relative activity over WT GLA (SEQ ID NO: 5))
10 | B10 | + (+ = 0.5 to 1.5 relative activity over WT GLA (SEQ ID NO: 5)) | + (+ = 0.5 to 1.5 relative activity over WT GLA (SEQ ID NO: 5)) | + (+ = 0.5 to 1.5 relative activity over WT GLA (SEQ ID NO: 5))
11 | B11 | + (+ = 0.5 to 1.5 relative activity over WT GLA (SEQ ID NO: 5)) | + (+ = 0.5 to 1.5 relative activity over WT GLA (SEQ ID NO: 5)) | + (+ = 0.5 to 1.5 relative activity over WT GLA (SEQ ID NO: 5))
12 | B12 | + (+ = 0.5 to 1.5 relative activity over WT GLA (SEQ ID NO: 5)) | ++ (++ = >1.5 to 2.5 relative activity over WT GLA (SEQ ID NO: 5)) | + (+ = 0.5 to 1.5 relative activity over WT GLA (SEQ ID NO: 5))
13 | B13 | + (+ = 0.5 to 1.5 relative activity over WT GLA (SEQ ID NO: 5)) | + (+ = 0.5 to 1.5 relative activity over WT GLA (SEQ ID NO: 5)) | ++ (++ = >1.5 to 2.5 relative activity over WT GLA (SEQ ID NO: 5))
14 | B14 | ++ (++ = >1.5 to 2.5 relative activity over WT GLA (SEQ ID NO: 5)) | + (+ = 0.5 to 1.5 relative activity over WT GLA (SEQ ID NO: 5)) | ++ (++ = >1.5 to 2.5 relative activity over WT GLA (SEQ ID NO: 5))
